# Measured values: patent US20250244325A1
# How the values were obtained:
# [1] = substrate: S clamp antigen from CSL451 GMP batch TC20-02-08 (sublot VS20200615A) (SARS-CoV-2) (UniProt P0DTC2); test: kinetics on CM5 chip: anti-mouse Ab, 30B8 captured, CSL451 Sclamp antigen in solution, 1:1 binding; density 13 RU, table row 5
# [2] = substrate: S clamp antigen from CSL451 GMP batch TC20-02-08 (sublot VS20200615A) (SARS-CoV-2) (UniProt P0DTC2); test: kinetics on CM5 chip: anti-mouse Ab, 30B8 captured, CSL451 Sclamp antigen in solution, 1:1 binding; density 13 RU
# [3] = substrate: S clamp antigen from CSL451 GMP batch TC20-02-08 (sublot VS20200615A) (SARS-CoV-2) (UniProt P0DTC2); test: kinetics on CM5 chip: anti-mouse Ab, 30B8 captured, CSL451 Sclamp antigen in solution, 1:1 binding; density 7 RU, table row 8
# [4] = substrate: S clamp antigen from CSL451 GMP batch TC20-02-08 (sublot VS20200615A) (SARS-CoV-2) (UniProt P0DTC2); test: homologous 30B8 capture/detection EIA; CSL451 DP held 1 h at room temperature (control), pre-treated with 0.125% Zwittergent 3 h at 37 C, antigen titrated
# [5] = substrate: S clamp antigen from CSL451 GMP batch TC20-02-08 (sublot VS20200615A) (SARS-CoV-2) (UniProt P0DTC2); test: kinetics on CM5 chip: anti-mouse Ab, 30B8 captured, CSL451 Sclamp antigen in solution, 1:1 binding; density 20 RU, table row 3
# [6] = substrate: S clamp antigen from CSL451 GMP batch TC20-02-08 (sublot VS20200615A) (SARS-CoV-2) (UniProt P0DTC2); test: kinetics on CM5 chip: anti-mouse Ab, 30B8 captured, CSL451 Sclamp antigen in solution, 1:1 binding; MEAN ± SEM of the eight runs
# [7] = substrate: S clamp antigen from CSL451 GMP batch TC20-02-08 (sublot VS20200615A) (SARS-CoV-2) (UniProt P0DTC2); test: kinetics on CM5 chip: anti-mouse Ab, 30B8 captured, CSL451 Sclamp antigen in solution, 1:1 binding; density 40 RU, table row 1
# [8] = substrate: S clamp antigen from CSL451 GMP batch TC20-02-08 (sublot VS20200615A) (SARS-CoV-2) (UniProt P0DTC2); test: binding kinetics from sensorgrams (FIG. 6); instrument and format not given
# [9] = substrate: S clamp antigen from CSL451 GMP batch TC20-02-08 (sublot VS20200615A) (SARS-CoV-2) (UniProt P0DTC2); test: kinetics on CM5 chip: anti-mouse Ab, 30B8 captured, CSL451 Sclamp antigen in solution, 1:1 binding; density 40 RU, table row 2
# [10] = substrate: S clamp antigen from CSL451 GMP batch TC20-02-08 (sublot VS20200615A) (SARS-CoV-2) (UniProt P0DTC2); test: kinetics on CM5 chip: anti-mouse Ab, 30B8 captured, CSL451 Sclamp antigen in solution, 1:1 binding; density 7 RU, table row 7
# [11] = substrate: S clamp antigen from CSL451 GMP batch TC20-02-08 (sublot VS20200615A) (SARS-CoV-2) (UniProt P0DTC2); test: kinetics on CM5 chip: anti-mouse Ab, 30B8 captured, CSL451 Sclamp antigen in solution, 1:1 binding; density 20 RU, table row 4
binder,measurement,setting,value
"antibody 30B8 (antibody, V domains shown) VH: EVQLQQSGAELVKPGASVKLSCTASGFNIKDTYIHWVKQRPEQGLEWIGRIDPANGNTKYDPKFQGKATITADTSSNTAYLQLSSLTSEDTAVCYCAGSLYDYDGAPFAYWGQGTLVTVSA VL: SIVMTQTPKFLLVSAGDRVTITCKASQSVTNDVTWYQQKPGQSPKLLIYYASNRYTGVPDRFTGSGYGTDFTFTISTVQAEDLAVYFCQQDYSSPWTFGGGTKLEIK",Kd,[1],17.1 pM
same,koff,[1],3.96e-05 s⁻¹
same,kon,[1],2.31e+06 M⁻¹ s⁻¹
same,Kd,[2],17.1 pM
same,koff,[2],3.98e-05 s⁻¹
same,kon,[2],2.33e+06 M⁻¹ s⁻¹
same,Kd,[3],13.1 pM
same,koff,[3],3.06e-05 s⁻¹
same,kon,[3],2.33e+06 M⁻¹ s⁻¹
same,EC50 (read off the curve),[4],0.7 µg/mL
same,Kd,[5],15.5 pM
same,koff,[5],3.66e-05 s⁻¹
same,kon,[5],2.37e+06 M⁻¹ s⁻¹
same,Kd,[6],15.1 pM
same,Kd,[7],15.9 pM
same,koff,[7],3.76e-05 s⁻¹
same,kon,[7],2.36e+06 M⁻¹ s⁻¹
same,Kd,[8],15 pM
same,Kd,[9],13.8 pM
same,koff,[9],3.25e-05 s⁻¹
same,kon,[9],2.35e+06 M⁻¹ s⁻¹
same,Kd,[10],13 pM
same,koff,[10],3.11e-05 s⁻¹
same,kon,[10],2.39e+06 M⁻¹ s⁻¹
same,Kd,[11],15.2 pM
same,koff,[11],3.68e-05 s⁻¹
same,kon,[11],2.42e+06 M⁻¹ s⁻¹
